Laboratory results taken from US20110177600A1 (published 2011).

Biological target: diphtheria toxin (UniProt P00588 33-567)
Assay: cell-based or functional assay

diphtheria toxin, sequence (P00588 33-567 limits assumed): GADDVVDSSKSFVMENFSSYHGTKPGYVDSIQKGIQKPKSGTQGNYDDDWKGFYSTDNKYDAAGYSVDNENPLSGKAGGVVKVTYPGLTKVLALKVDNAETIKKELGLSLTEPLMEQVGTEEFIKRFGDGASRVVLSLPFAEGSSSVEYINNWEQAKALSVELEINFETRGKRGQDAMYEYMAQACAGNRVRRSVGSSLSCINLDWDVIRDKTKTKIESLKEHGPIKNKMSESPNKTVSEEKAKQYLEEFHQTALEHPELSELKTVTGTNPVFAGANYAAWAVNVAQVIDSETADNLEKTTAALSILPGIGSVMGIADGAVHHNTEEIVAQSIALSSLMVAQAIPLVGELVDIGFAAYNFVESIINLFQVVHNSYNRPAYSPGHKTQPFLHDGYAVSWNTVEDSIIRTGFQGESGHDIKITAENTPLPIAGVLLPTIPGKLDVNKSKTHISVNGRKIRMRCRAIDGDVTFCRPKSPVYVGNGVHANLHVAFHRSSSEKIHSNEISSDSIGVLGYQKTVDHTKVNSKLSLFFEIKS

Binder	EC50 for protecting Jurkat cells from killing by diphtheria toxin (3H-thymidine incorporation) [ng/mL]
anti-diphtheria toxin antibody expressed in DG44 cells (antibody, human IgG1, kappa, V domains shown) VH: EVQLVESGGGLVKPGGSLRLSCEASGFIFSDYYMSWIRQAPGKGLEWISYISPSGSTLYYADSMRGRFTISRDNAKNSLYLQMNSLRVEDTAVYFCAREYPTTSKVAITPNWFDLWGQGTLVTVSS VL: ETTLTQSPATLSLSPGERATLSCRASQSVSTFLAWYQQKPGQAPRLLIYDASNRATGIPARFSGSGSGTDFTLTISSLEPEDFAVYYCQQRNIWPSFGGGTKVDIKR	8
anti-diphtheria toxin antibody expressed in PER.C6 cells (antibody, human IgG1, kappa, V domains shown) VH: EVQLVESGGGLVKPGGSLRLSCEASGFIFSDYYMSWIRQAPGKGLEWISYISPSGSTLYYADSMRGRFTISRDNAKNSLYLQMNSLRVEDTAVYFCAREYPTTSKVAITPNWFDLWGQGTLVTVSS VL: ETTLTQSPATLSLSPGERATLSCRASQSVSTFLAWYQQKPGQAPRLLIYDASNRATGIPARFSGSGSGTDFTLTISSLEPEDFAVYYCQQRNIWPSFGGGTKVDIKR	11
